# According to PMC7689449:
# Legend:
# [1] = molecular target: Sulfolobus islandicus type I-D Cas10d large subunit (Se-Met substituted, C-terminal His6) (Sulfolobus islandicus); assay: crystal structure; Se-Met Cas10d and AcrID1 mixed 1:2 (Cas10d:AcrID1), 75 °C for 1 min, complex isolated on Superdex 200 (30 mM Hepes-NaOH pH 7.5, 150 mM NaCl, 5 mM β-ME); crystals in 0.1 M Hepes pH 7.5, 4% PEG 8000, 5% ethylene glycol, 19 °C; SAD, 3.5 Å
# [2] = molecular target: Sulfolobus islandicus rod-shaped virus 3 (SIRV3) anti-CRISPR protein AcrID1 (C-terminal His6) (Sulfolobus islandicus rod-shaped virus 3 (SIRV3)); assay: as above
substance,measurement,setting,value
Sulfolobus islandicus rod-shaped virus 3 (SIRV3) anti-CRISPR protein AcrID1 (C-terminal His6) (natural protein),stoichiometry N (AcrID1 per Cas10d),[1],2
same,stoichiometry N,[2],2
